# Experimental data reported in US20180177842A1 (CANIMGUIDE THERAPEUTICS, published 2018).
# T1: P3028 (VFDEFKPLVEEPQNLIK, SEQ ID NO: 185), His-tagged (human)
# T1 construct: Synthetic fragment of human serum albumin (positions 397-413); used in solution as His-tagged peptide PGE73; also called PGE73; not shown: His-tag
# T1 peptide: VFDEFKPLVEEPQNLIK
# Target: T1, P3028 (VFDEFKPLVEEPQNLIK, SEQ ID NO: …)
# Experiment: PEPSCAN ELISA; peptide on chip, His-P3028 added;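 further: peroxidase color development with ABTS and H2O2 substrate, OD405 imaged by CCD camera with image processing and taken as raw values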
row,RAMPO Score,Binder
1,466 rampo units,AKLDTFFVKLSLFTER [AKLDTFFVKLSLFTER (SEQ ID NO: 268)]
2,436 rampo units,KKLDNFFVKLSLFTER [KKLDNFFVKLSLFTER (SEQ ID NO: 306)]
3,309 rampo units,KALDTFFVKLSLFTER [KALDTFFVKLSLFTER (SEQ ID NO: 485)]
4,367 rampo units,GKLDTFFVKLSLFTER [GKLDTFFVKLSLFTER (SEQ ID NO: 271)]
5,411 rampo units,KKLDTFFLKLSLFTER [KKLDTFFLKLSLFTER (SEQ ID NO: 328)]
6,306 rampo units,KKLDTFFVHLSLFTER [KKLDTFFVHLSLFTER (SEQ ID NO: 488)]
7,456 rampo units,KKLDTFFPKLSLFTER (also called 32251) [KKLDTFFPKLSLFTER (SEQ ID NO: 329)]
8,390 rampo units,KFLDTFFVKLSLFTER [KFLDTFFVKLSLFTER (SEQ ID NO: 421)]
9,344 rampo units,KKLCTFFVKLSLFTER [KKLCTFFVKLSLFTER (SEQ ID NO: 449)]
10,346 rampo units,KKLDAFFVKLSLFTER [KKLDAFFVKLSLFTER (SEQ ID NO: 447)]
11,295 rampo units,KKLDDFFVKLSLFTER [KKLDDFFVKLSLFTER (SEQ ID NO: 500)]
12,381 rampo units,KKLDTFEVKLSLFTER [KKLDTFEVKLSLFTER (SEQ ID NO: 424)]
13,341 rampo units,KKLDEFFVKLSLFTER [KKLDEFFVKLSLFTER (SEQ ID NO: 456)]
14,426 rampo units,KKLDTFFVKASLFTER [KKLDTFFVKASLFTER (SEQ ID NO: 332)]
15,495 rampo units,KKLDTFFVKGSLFTER [KKLDTFFVKGSLFTER (SEQ ID NO: 334)]
16,391 rampo units,KKLDHFFVKLSLFTER [KKLDHFFVKLSLFTER (SEQ ID NO: 420)]
17,293 rampo units,KKLDTFFVKHSLFTER [KKLDTFFVKHSLFTER (SEQ ID NO: 502)]
18,563 rampo units,KKGDTFFVKLSLFTER [KKGDTFFVKLSLFTER (SEQ ID NO: 287)]
19,254 rampo units,KKLDTFFCKLSLFTER [KKLDTFFCKLSLFTER (SEQ ID NO: 519)]
20,365 rampo units,KKLDTFFRKLSLFTER [KKLDTFFRKLSLFTER (SEQ ID NO: 330)]
21,311 rampo units,KKLDLFFVKLSLFTER [KKLDLFFVKLSLFTER (SEQ ID NO: 484)]
22,432 rampo units,KKCDTFFVKLSLFTER [KKCDTFFVKLSLFTER (SEQ ID NO: 283)]

row,RAMPO Score,Binder
1,335 rampo units,KKLDTCFVKLSLFTER [KKLDTCFVKLSLFTER (SEQ ID NO: 462)]
2,394 rampo units,KHLDTFFVKLSLFTER [KHLDTFFVKLSLFTER (SEQ ID NO: 418)]
3,283 rampo units,KKLDTFFVKCSLFTER [KKLDTFFVKCSLFTER (SEQ ID NO: 508)]
4,411 rampo units,KKLDTFCVKLSLFTER [KKLDTFCVKLSLFTER (SEQ ID NO: 409)]
5,349 rampo units,KELDTFFVKLSLFTER [KELDTFFVKLSLFTER (SEQ ID NO: 441)]
6,331 rampo units,KILDTFFVKLSLFTER [KILDTFFVKLSLFTER (SEQ ID NO: 467)]
7,477 rampo units,KKHDTFFVKLSLFTER [KKHDTFFVKLSLFTER (SEQ ID NO: 288)]
8,301 rampo units,KKLDTFDVKLSLFTER [KKLDTFDVKLSLFTER (SEQ ID NO: 492)]
9,299 rampo units,KKLDTFFAKLSLFTER [KKLDTFFAKLSLFTER (SEQ ID NO: 495)]
10,528 rampo units,KKEDTFFVKLSLFTER [KKEDTFFVKLSLFTER (SEQ ID NO: 285)]
11,449 rampo units,KKLDCFFVKLSLFTER [KKLDCFFVKLSLFTER (SEQ ID NO: 304)]
12,396 rampo units,EKLDTFFVKLSLFTER [EKLDTFFVKLSLFTER (SEQ ID NO: 270)]
13,575 rampo units,KKLDTAFVKLSLFTER [KKLDTAFVKLSLFTER (SEQ ID NO: 313)]
14,492 rampo units,KKDDTFFVKLSLFTER [KKDDTFFVKLSLFTER (SEQ ID NO: 284)]
15,405 rampo units,KGLDTFFVKLSLFTER [KGLDTFFVKLSLFTER (SEQ ID NO: 412)]
16,271 rampo units,KKLDTFFQKLSLFTER [KKLDTFFQKLSLFTER (SEQ ID NO: 513)]
17,475 rampo units,KKLDMFFVKLSLFTER [KKLDMFFVKLSLFTER (SEQ ID NO: 305)]
18,358 rampo units,KKLDTFFFKLSLFTER [KKLDTFFFKLSLFTER (SEQ ID NO: 326)]
19,298 rampo units,KKLDTFFTKLSLFTER [KKLDTFFTKLSLFTER (SEQ ID NO: 496)]
20,483 rampo units,IKLDTFFVKLSLFTER [IKLDTFFVKLSLFTER (SEQ ID NO: 273)]
21,403 rampo units,KKLDTFFVKFSLFTER [KKLDTFFVKFSLFTER (SEQ ID NO: 333)]
22,430 rampo units,KKLDRFFVKLSLFTER [KKLDRFFVKLSLFTER (SEQ ID NO: 309)]

row,RAMPO Score,Binder
1,332 rampo units,FKLDTFFVKLSLFTER [FKLDTFFVKLSLFTER (SEQ ID NO: 465)]
2,427 rampo units,KKADTFFVKLSLFTER [KKADTFFVKLSLFTER (SEQ ID NO: 282)]
3,386 rampo units,KKLDGFFVKLSLFTER [KKLDGFFVKLSLFTER (SEQ ID NO: 95)]
4,379 rampo units,KKLDTFFGKLSLFTER [KKLDTFFGKLSLFTER (SEQ ID NO: 327)]
5,494 rampo units,KKLATFFVKLSLFTER [KKLATFFVKLSLFTER (SEQ ID NO: 298)]
6,428 rampo units,HKLDTFFVKLSLFTER [HKLDTFFVKLSLFTER (SEQ ID NO: 272)]
7,237 rampo units,KKLDKFFVKLSLFTER [KKLDKFFVKLSLFTER (SEQ ID NO: 530)]
8,401 rampo units,KKLDTFFIKLSLFTER [KKLDTFFIKLSLFTER (SEQ ID NO: 416)]
9,293 rampo units,KKLDIFFVKLSLFTER [KKLDIFFVKLSLFTER (SEQ ID NO: 501)]
10,454 rampo units,KKIDTFFVKLSLFTER [KKIDTFFVKLSLFTER (SEQ ID NO: 289)]
11,373 rampo units,DKLDTFFVKLSLFTER [DKLDTFFVKLSLFTER (SEQ ID NO: 269)]
12,458 rampo units,KKLDSFFVKLSLFTER [KKLDSFFVKLSLFTER (SEQ ID NO: 310)]
13,393 rampo units,KKFDTFFVKLSLFTER [KKFDTFFVKLSLFTER (SEQ ID NO: 286)]
14,535 rampo units,KKLDQFFVKLSLFTER [KKLDQFFVKLSLFTER (SEQ ID NO: 308)]
15,386 rampo units,KKKDTFFVKLSLFTER [KKKDTFFVKLSLFTER (SEQ ID NO: 290)]
16,426 rampo units,KKLDTFAVKLSLFTER [KKLDTFAVKLSLFTER (SEQ ID NO: 404)]
17,335 rampo units,KDLDTFFVKLSLFTER [KDLDTFFVKLSLFTER (SEQ ID NO: 461)]
18,240 rampo units,KKLDTFFVELSLFTER [KKLDTFFVELSLFTER (SEQ ID NO: 527)]
19,295 rampo units,KCLDTFFVKLSLFTER [KCLDTFFVKLSLFTER (SEQ ID NO: 499)]
20,427 rampo units,KKLDPFFVKLSLFTER [KKLDPFFVKLSLFTER (SEQ ID NO: 307)]
21,290 rampo units,KKLDFFFVKLSLFTER [KKLDFFFVKLSLFTER (SEQ ID NO: 504)]
